The labels stand for the following.
B1: Invasin IpaA (Shigella flexneri), P18010 (parent)
chain: MHNVNNTQAPTFLYKATSPSSTEYSELKSKISDIHSSQTSLKTPASVSEKENFATSFNQKCLDFLFSSSGKEDVLRSIYSNSMNAYAKSEILEFSNVLYSLVHQNGLNFENEKGLQKIVAQYSELIIKDKLSQDSAFGPWSAKNKKLHQLRQNIEHRLALLAQQHTSGEALSLGQKLLNTEVSSFIKNNILAELKLSNETVSSLKLDDLVDAQAKLAFDSLRNQRKNTIDSKGFGIGKLSRDLNTVAVFPELLRKVLNDILEDIKDSHPIQDGLPTPPEDMPDGGPTPGANEKTSQPVIHYHINNDNRTYDNRVFDNRVYDNSYHENPENDAQSPTSQTNDLLSRNGNSLLNPQRALVQKVTSVLPHSISDTVQTFANNSALEKVFNHTPDNSDGIGSDLLTTSSQERSANNSLSRGHRPLNIQNSSTTPPLHPEGVTSSNDNSSDTTKSSASLSHRVASQINKFNSNTDSKVLQTDFLSRNGDTYLTRETIFEASKKVTNSLSNLISLIGTKSGTQERELQEKSKDITKSTTEHRINNKLKVTDANIRNYVTETNADTIDKNHAIYEKAKEVSSALSKVLSKIDDTSAELLTDDISDLKNNNDITAENNNIYKAAKDVTTSLSKVLKNINKD

The first assay covers variants of B1. To be noted: with vinc_human VCL.
On to V499E;L503Q, for which the “effect of a mutation on the interaction” value is “disrupting interaction”.

Variants of B1 are the subject of the next assay. To be noted: with vinc_human VCL. The source holds these as a separate data set.
On to A495K, for which the “effect of a mutation on the interaction” value was “decreasing interaction”.

(Values after IntAct's records for PubMed 21525010.)
